Experimental data: article PMC10028186
pKd: −log10 of the molar value.

Test system: Strep-msIHF (mycobacterial integration host factor) (Mycobacterium smegmatis mc2 155)
Test: BLI
Settings: BLI: PBS with 50 mM Tris-HCl pH 7.5, 150 mM NaCl, 0.1 mg/ml BSA, 0.05% Tween-20, 30 C. EMSA: 50 mM Tris-HCl pH 8, 150 mM NaCl, 10 mM Mg acetate, 0.02% …

Row | Substance | pKd
1 | attB fragment | 6.60
2 | oriC fragment | 6.57
